In the supplement of paper PMC10567573:

B1: LOC100129726 (parent)
chain: AKAADSPTRNDLESGLGHFSLRVH

Variants of: B1
Assay: protein stability index of a GFP-peptide fusion (GPS, HEK-293T) (PSI 1-6); higher = more stable
Conditions: c terminus: a fixed tail appended
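Note: lentivirally expressed fusions sorted by FACS into six bins by GFP to DsRed ratio, PSI derived from sequencing read proportions per bin multiplied by bin number.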

| Variant | protein stability index |
| --- | --- |
| AKAPDSPTRNDLESGLGHFSLRVH [A4P] | 3.06 |
| AKALDSPTRNDLESGLGHFSLRVH [A4L] | 2.95 |
| AKAHDSPTRNDLESGLGHFSLRVH [A4H] | 3.36 |
| AKAMDSPTRNDLESGLGHFSLRVH [A4M] | 2.54 |
| AKANDSPTRNDLESGLGHFSLRVH [A4N] | 3.04 |
| AKAKDSPTRNDLESGLGHFSLRVH [A4K] | 3.09 |
| AKAFDSPTRNDLESGLGHFSLRVH [A4F] | 2.31 |
| AKASDSPTRNDLESGLGHFSLRVH [A4S] | 3.1 |
| AKAIDSPTRNDLESGLGHFSLRVH [A4I] | 2.98 |
| AKADDSPTRNDLESGLGHFSLRVH [A4D] | 3.87 |
| AKAQDSPTRNDLESGLGHFSLRVH [A4Q] | 3.15 |
| AKARDSPTRNDLESGLGHFSLRVH [A4R] | 2.81 |
| AKAADSPTRNDLESGLGHGSLRVH [F19G] | 4.32 |
| AKAADSPTRNDLESGLGHASLRVH [F19A] | 3.95 |
| AKAADSPTRNDLESGLGHRSLRVH [F19R] | 4.28 |
| AKAADSPTRNDLESGLGHQSLRVH [F19Q] | 4.33 |
| AKAADSPTRNDLESGLGHMSLRVH [F19M] | 3.69 |
| AKAADSPCRNDLESGLGHFSLRVH [T8C] | 2.07 |
| AKAADSPNRNDLESGLGHFSLRVH [T8N] | 3.36 |
| AKAADSPGRNDLESGLGHFSLRVH [T8G] | 3.61 |
| AKAADSPKRNDLESGLGHFSLRVH [T8K] | 2.73 |
| AKAADSPSRNDLESGLGHFSLRVH [T8S] | 2.74 |
| AKAADSPTRNDLESGLGHFSLRLH [V23L] | 2.88 |
| AKAADSPTRNDLESGLGHFSLRYH [V23Y] | 2.61 |

| Variant | protein stability index |
| --- | --- |
| AKAADSPTRNDLESGLGHFSLRIH [V23I] | 2.42 |
| AKAADSPTRNDLESGLGHFSLRMH [V23M] | 3.29 |
| AKAADSPTRNDLESGLGHFSLRFH [V23F] | 2.14 |
| AKAADSPTRNDLESGLGHFSLRTH [V23T] | 3.49 |
| AKAADSPTRNDLESGLGHFSLRWH [V23W] | 2.14 |
| AKAADSPTRNDLESGLGHFSLRKH [V23K] | 4.43 |
| AKAADSPTRSDLESGLGHFSLRVH [N10S] | 3.17 |
| AKAADSPTRGDLESGLGHFSLRVH [N10G] | 2.77 |
| AKAADSPTRCDLESGLGHFSLRVH [N10C] | 2.13 |
| AKAADSPTRHDLESGLGHFSLRVH [N10H] | 3.53 |
| AKAADSPTRWDLESGLGHFSLRVH [N10W] | 1.88 |
| AKAADSPTRLDLESGLGHFSLRVH [N10L] | 2.88 |
| AKAADSPTRNDLESGHGHFSLRVH [L16H] | 3.44 |
| AKAADSPTRNDLESGRGHFSLRVH [L16R] | 3.78 |
| AKAADSPTRNDLESGFGHFSLRVH [L16F] | 2.57 |
| AKAADSPTRNDLESGNGHFSLRVH [L16N] | 3.67 |
| AKAADSPTRNDLESGAGHFSLRVH [L16A] | 3.97 |
| AKAADSPTRNDLESGMGHFSLRVH [L16M] | 3.26 |
| AKAADSPTRNDLESGVGHFSLRVH [L16V] | 2.38 |
| AKAADSPTRNDLESGKGHFSLRVH [L16K] | 3.89 |
| AKAADSPTRNDLESGPGHFSLRVH [L16P] | 3.12 |
| AKAADSPTRNDLESGLGHFSHRVH [L21H] | 3.55 |
| AKAADSPTRNDLESGLGHFSPRVH [L21P] | 4.25 |
| AKAADSPTRNDLESGLGHFSIRVH [L21I] | 2.33 |

| Variant | protein stability index |
| --- | --- |
| AKAADSPTRNDLESGLGHFSYRVH [L21Y] | 3.06 |
| AKAADSPTRNDLESGLGHFSDRVH [L21D] | 5.01 |
| AKAAASPTRNDLESGLGHFSLRVH [D5A] | 2.84 |
| AKAATSPTRNDLESGLGHFSLRVH [D5T] | 2.61 |
| AKAACSPTRNDLESGLGHFSLRVH [D5C] | 2.34 |
| AKAAQSPTRNDLESGLGHFSLRVH [D5Q] | 3.15 |
| AKAAMSPTRNDLESGLGHFSLRVH [D5M] | 3.06 |
| AKAAGSPTRNDLESGLGHFSLRVH [D5G] | 2.9 |
| AKAAPSPTRNDLESGLGHFSLRVH [D5P] | 2.48 |
| AKAAVSPTRNDLESGLGHFSLRVH [D5V] | 2.54 |
| AKAAESPTRNDLESGLGHFSLRVH [D5E] | 3.16 |
| AKAAKSPTRNDLESGLGHFSLRVH [D5K] | 3.19 |
| AKAAFSPTRNDLESGLGHFSLRVH [D5F] | 2.17 |
| AKAANSPTRNDLESGLGHFSLRVH [D5N] | 2.81 |
| AKAADSPTRNDLESGLGHFSLCVH [R22C] | 2.27 |
| AKAADSPTRNDLESGLGHFSLPVH [R22P] | 4 |
| AKAADSPTRNDLESGLGHFSLHVH [R22H] | 3.25 |
| AKAADSPTRNDLESGLGHFSLGVH [R22G] | 3.5 |
| AKAADSPTRNDLESGLGHFSLKVH [R22K] | 3.59 |
| AKAADSPTRNDLESGLGHFSLQVH [R22Q] | 2.73 |
| AKAADSMTRNDLESGLGHFSLRVH [P7M] | 2.57 |
| AKAADSATRNDLESGLGHFSLRVH [P7A] | 3.49 |
| AKAADSQTRNDLESGLGHFSLRVH [P7Q] | 3.41 |
| AKAADSLTRNDLESGLGHFSLRVH [P7L] | 3.09 |

| Variant | protein stability index |
| --- | --- |
| AKAADSFTRNDLESGLGHFSLRVH [P7F] | 2.33 |
| AKAADSWTRNDLESGLGHFSLRVH [P7W] | 1.65 |
| AKAADSPTRNWLESGLGHFSLRVH [D11W] | 2.56 |
| AKAADSPTRNELESGLGHFSLRVH [D11E] | 3.9 |
| AKAADSPTRNPLESGLGHFSLRVH [D11P] | 2.35 |
| AKAADSPTRNKLESGLGHFSLRVH [D11K] | 2.72 |
| AKAADSPTRNQLESGLGHFSLRVH [D11Q] | 2.8 |
| AKAADSPTRNLLESGLGHFSLRVH [D11L] | 1.9 |
| AKAADSPTRNCLESGLGHFSLRVH [D11C] | 2.91 |
| AKAADSPTRNRLESGLGHFSLRVH [D11R] | 2.54 |
| AKAADSPTRNALESGLGHFSLRVH [D11A] | 3.1 |
| AKAADSPTRNDLESGLGPFSLRVH [H18P] | 3.04 |
| AKAADSPTRNDLESGLGIFSLRVH [H18I] | 3.13 |
| AKAADSPTRNDLESGLGTFSLRVH [H18T] | 3.05 |
| AKAADSPTRNDLESGLGMFSLRVH [H18M] | 2.29 |
| AKAADSPTRNDLESGLGAFSLRVH [H18A] | 3.25 |
| AKAADSPTRNDLESGLGNFSLRVH [H18N] | 3.53 |
| AKAADSPTRNDLESGLGKFSLRVH [H18K] | 3.15 |
| AKAADSPTRNDLESGLGGFSLRVH [H18G] | 3.84 |
| AKAADSPTRNDLESGLGCFSLRVH [H18C] | 3.2 |
| AKAADSPTRNDLESGLGRFSLRVH [H18R] | 3.08 |
| MKAADSPTRNDLESGLGHFSLRVH [A1M] | 2.74 |
